According to patent publication US8168592B2 (Amgen Inc., priority 2005, dated 2012):
Blank lines part the entries; values can stand above or below the compound they belong to. Square brackets hold non-standard residues; d marks the D form. PEG = not defined here

Experiments:
[1] = in vitro stability in 10% human plasma, LC-MS/MS; assay type: in vitro ADME; conditions: room temperature, 100 ng/ml; for % Remaining: 0 h
Procedure: Consequently, the stability of select, non-PEGylated analogs was evaluated in vitro in the presence of 10% rat or human plasma. Briefly, samples of each peptide were diluted to 100 ng/ml into PBS containing 10% of rat or human plasma. Each sample was then incubated at room temperature and analyzed by LC-MS/MS to quantitate the intact peptide remaining at select time points over 6 hours.

CGRP1 receptor = target: T1, CGRP1 receptor (Homo sapiens, UniProt O60894+Q16602); assay: in vitro CGRP1 receptor mediated cAMP assay in SK-N-MC cells; assay type: cell-based; conditions: for loss in antagonist activity on PEGylation relative to the unconjugated parent peptide: cAMP assay
T1 construct: SK-N-MC cells express CRLR and RAMP1, which form CGRP1 receptor; endogenous in cells; host or cells: SK-N-MC human neuroblastoma cells
Procedure, shortened: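 Intracellular cAMP served as the Gs-coupled CGRP1 readout in endogenously expressing SK-N-MC cells. After a 15-minute room-temperature step in plasma-free medium, cell lysates (30 minutes, 37° C) went into a competitive ELISA with a cAMP-AP conjugate and anti-cAMP antibody for 1 hour, then a 30-minute substrate enhancer step before reading.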

[2] = rat pharmacokinetic studies; conditions: 2 mg/kg; for AUC0-inf / AUC0-t / CL / MRT / Vss / t1/2 / CL/F / Cmax / Tmax / F %: rat, mean, n = 3
Procedure: Rat pharmacokinetic studies. […] There were three rats per group (n=3), each weighing 250-325 g. Each group received either a 2 mg/kg intravenous or subcutaneous discrete administration. The approximate dose volume was 0.3 mL per rat. Approximately 0.25 mL of whole blood was taken per time point at the following post-dose collection times for the intravenous groups (in hours): 0.083, 0.25, 0.5, 1, 2, 4, 6, 8, 24, 48, 72, 96 and the following time points for the subcutaneous groups (in hours): 0.25, 0.5, 1, 2, 4, 6, 8, 24, 48, 72, 96. Whole blood samples were collected in microtainer vials containing EDTA as anticoagulant and were kept on wet ice until processed for plasma. The plasma was obtained by centrifuging the whole blood for approximately 5 min at 11,500 rpm. Plasma was transferred to new tubes and stored frozen at approximately −70° C. until quantitative analysis. […] The individual sample concentrations for each time point were averaged (n=3) within a given dose group using Excel 2000 software. The averaged plasma concentration-time data were analyzed by noncompartmental methods using WinNonlin v.3.3 software. Nominal sample times were used in the pharmacokinetic analysis. The area under the concentration-time curve was calculated using the linear/log trapezoidal method to determine exposure.

T1 sequence (Q16602 23-461): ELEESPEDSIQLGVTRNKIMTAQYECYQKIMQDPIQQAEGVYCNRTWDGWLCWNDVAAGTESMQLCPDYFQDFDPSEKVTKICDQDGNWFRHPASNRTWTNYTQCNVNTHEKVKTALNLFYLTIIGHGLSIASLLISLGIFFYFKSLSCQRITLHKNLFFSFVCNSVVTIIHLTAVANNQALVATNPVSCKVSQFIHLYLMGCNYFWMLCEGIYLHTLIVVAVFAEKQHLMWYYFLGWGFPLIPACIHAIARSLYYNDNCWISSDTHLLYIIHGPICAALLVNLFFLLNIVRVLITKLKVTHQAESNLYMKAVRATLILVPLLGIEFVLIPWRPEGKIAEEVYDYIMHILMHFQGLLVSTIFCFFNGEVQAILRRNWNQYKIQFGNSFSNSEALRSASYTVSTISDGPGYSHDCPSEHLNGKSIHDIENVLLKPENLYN
T1 sequence (O60894 27-148): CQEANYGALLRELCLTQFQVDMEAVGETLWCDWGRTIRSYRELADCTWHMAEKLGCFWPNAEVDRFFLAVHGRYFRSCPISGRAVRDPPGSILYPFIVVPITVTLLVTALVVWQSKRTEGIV

% Remaining [1]: 100.0% | remaining at 0.17 h, 100 ng/ml [1]: 88.3% | remaining at 0.5 h, 100 ng/ml [1]: 47.3% | remaining at 1 h, 100 ng/ml [1]: 28.7% | remaining at 2 h, 100 ng/ml [1]: 11% | remaining at 3 h, 100 ng/ml [1]: 5.4% | remaining at 4 h, 100 ng/ml [1]: 3.1% | remaining at 5 h, 100 ng/ml [1]: 3.6% | remaining at 6 h, 100 ng/ml [1]: 2.8%
Compound: CC(=O)N[C@@H](Cc1c[nH]c2ccccc12)C(=O)N[C@H](C(=O)N[C@H](C(=O)N[C@@H](Cc1cnc[nH]1)C(=O)N[C@@H](CCCCNC(=N)N)C(=O)N[C@@H](CC(C)C)C(=O)N[C@@H](C)C(=O)NCC(=O)N[C@@H](CC(C)C)C(=O)N[C@@H](CC(C)C)C(=O)N[C@@H](CO)C(=O)N[C@@H](CCCCNC(=N)N)C(=O)N[C@@H](CO)C(=O)NCC(=O)NCC(=O)N[C@H](C(=O)N[C@H](C(=O)N[C@@H](CCCNC(=N)N)C(=O)N[C@@H](CCCCN)C(=O)N[C@@H](CC(N)=O)C(=O)N[C@@H](Cc1ccccc1)C(=O)N[C@H](C(=O)N1CCC[C@H]1C(=O)N[C@H](C(=O)N[C@@H](CC(=O)O)C(=O)N[C@H](C(=O)NCC(=O)N1CCC[C@H]1C(=O)N[C@@H](Cc1ccccc1)C(=O)N[C@@H](C)C(=O)N[C@@H](Cc1ccccc1)C(N)=O)C(C)C)[C@@H](C)O)C(C)C)C(C)C)C(C)C)[C@@H](C)O)C(C)C [SEQ ID NO: 25]

% Remaining [1]: 100.0% | remaining at 0.17 h, 100 ng/ml [1]: 74.2% | remaining at 0.5 h, 100 ng/ml [1]: 54% | remaining at 1 h, 100 ng/ml [1]: 50.2% | remaining at 2 h, 100 ng/ml [1]: 36.7% | remaining at 3 h, 100 ng/ml [1]: 15.8% | remaining at 4 h, 100 ng/ml [1]: 11.3% | remaining at 5 h, 100 ng/ml [1]: 6.3% | remaining at 6 h, 100 ng/ml [1]: 5.2%
Compound: Ac-WVTHQLAGLLSQSGGVVRKNFVPTDVGPFAF-NH2 [SEQ ID NO: 39]

% Remaining [1]: 100.0% | remaining at 0.17 h, 100 ng/ml [1]: 59% | remaining at 0.5 h, 100 ng/ml [1]: 20.6% | remaining at 1 h, 100 ng/ml [1]: 10% | remaining at 2 h, 100 ng/ml [1]: 2.3% | remaining at 3 h, 100 ng/ml [1]: 1.3% | remaining at 4 h, 100 ng/ml [1]: 0.7% | remaining at 5 h, 100 ng/ml [1]: 0.7% | remaining at 6 h, 100 ng/ml [1]: 0%
Compound: Ac-WVTHRLAGLLSQSGGVVRKNFVPTDVGPFAF-NH2 [SEQ ID NO: 37]

Compound: SEQ ID NO:27 (WVTHXLAGLLSRSGGVVRKNFVPTDVGPFAF; CGRP peptide; MOD_RES (1)..(1): …ON; MISC_FEATURE (5)..(5): xaa=citrulline; MOD_RES (31)..(31): AMIDATION)
antagonist activity in cAMP assay, in words (CGRP1 receptor): well tolerated

Compound: SEQ ID NO:28 (WVTHXLAGLLSRSGGVVRKNFVPTDVGPFAF; CGRP peptide; MOD_RES (1)..(1): …ON; MISC_FEATURE (5)..(5): xaa=citrulline; MISC_FEATURE (19)..(19): PEGylated; MOD_RES (31)..(31): AMIDATION)
antagonist activity in cAMP assay, in words (CGRP1 receptor): relatively minor loss of in vitro antagonist activity

Compound: SEQ ID NO:29 (WVTHRLAGLLSXSGGVVRKNFVPTDVGPFAF; CGRP peptide; MOD_RES (1)..(1): …ON; MISC_FEATURE (12)..(12): xaa=citrulline; MOD_RES (31)..(31): AMIDATION)
antagonist activity in cAMP assay, in words (CGRP1 receptor): well tolerated

Compound: SEQ ID NO:30 (WVTHRLAGLLSXSGGVVRKNFVPTDVGPFAF; CGRP peptide; MOD_RES (1)..(1): …ON; MISC_FEATURE (12)..(12): xaa=citrulline; MISC_FEATURE (19)..(19): PEGylated; MOD_RES (31)..(31): AMIDATION)
antagonist activity in cAMP assay, in words (CGRP1 receptor): relatively minor loss of in vitro antagonist activity

Compound: SEQ ID NO:32 (WVTHXLAGLLSXSGGVVRKNFVPTDVGPFAF; CGRP peptide; MOD_RES (1)..(1): …ON; MISC_FEATURE (5)..(5): xaa=citrulline; MISC_FEATURE (12)..(12): xaa=citrulline; MISC_FEATURE (19)..(19): PEGylated; MOD_RES (31)..(31): AMIDATION)
antagonist activity in cAMP assay, in words (CGRP1 receptor): relatively minor loss of in vitro antagonist activity | mean residence time (MRT) longer compared to SEQ ID NO:15 ([2]; intravenous): 4 times | bioavailablity (F %) ([2]; subcutaneous): 47% | exposure (AUC) increase compared to SEQ ID NO:15 ([2]; subcutaneous): about 15 fold

Compound: SEQ ID NO:33 (Ac-WVTHRLAGLLSASGGVVRCNFVPTDVGPFAF-NH2)
antagonist activity in cAMP assay, in words (CGRP1 receptor): not well tolerated

Compound: SEQ ID NO:35 (Ac-WVTHRLAGLLSQSGGVVRCNFVPTDVGPFAF-NH2)
antagonist activity in cAMP assay, in words (CGRP1 receptor): well tolerated

loss in antagonist activity on PEGylation relative to the unconjugated parent peptide (CGRP1 receptor): greater than 12 fold
Compound: SEQ ID NO:36 (Ac-WVTHRLAGLLSQSGGVVRC(PEG)NFVPTDVGPFAF-NH2; reading uncertain)

more potent than the thioether-linked PEGylated analog SEQ ID NO:36 (CGRP1 receptor; amine linkage): more than 42 fold
Compound: SEQ ID NO:38 (Ac-WVTHRLAGLLSQSGGVVRK(PEG)NFVPTDVGPFAF-NH2; reading uncertain)

antagonist activity in cAMP assay, in words (CGRP1 receptor): reasonably good in vitro potency
Compound: SEQ ID NO:40 (Ac-WVTHQLAGLLSQSGGVVRK(PEG)NFVPTDVGPFAF-NH2; reading uncertain)

Compound: SEQ ID NO:41 (Ac-WVTHRLAGLLS[dR]SGGVVRCNFVPTDVGPFAF-NH2; SMILES CC(=O)N[C@@H](Cc1c[nH]c2ccccc12)C(=O)N[C@H](C(=O)N[C@H](C(=O)N[C@@H](Cc1c[nH]cn1)C(=O)N[C@@H](CCCNC(=N)N)C(=O)N[C@@H](CC(C)C)C(=O)N[C@@H](C)C(=O)NCC(=O)N[C@@H](CC(C)C)C(=O)N[C@@H](CC(C)C)C(=O)N[C@@H](CO)C(=O)N[C@H](CCCNC(=N)N)C(=O)N[C@@H](CO)C(=O)NCC(=O)NCC(=O)N[C@H](C(=O)N[C@H](C(=O)N[C@@H](CCCNC(=N)N)C(=O)N[C@@H](CS)C(=O)N[C@@H](CC(N)=O)C(=O)N[C@@H](Cc1ccccc1)C(=O)N[C@H](C(=O)N1CCC[C@H]1C(=O)N[C@H](C(=O)N[C@@H](CC(=O)O)C(=O)N[C@H](C(=O)NCC(=O)N1CCC[C@H]1C(=O)N[C@@H](Cc1ccccc1)C(=O)N[C@@H](C)C(=O)N[C@@H](Cc1ccccc1)C(N)=O)C(C)C)[C@@H](C)O)C(C)C)C(C)C)C(C)C)[C@@H](C)O)C(C)C)
antagonist activity in cAMP assay, in words (CGRP1 receptor): well tolerated

loss in antagonist activity on PEGylation relative to the unconjugated parent peptide (CGRP1 receptor): greater than 32 fold
Compound: SEQ ID NO:42 (Ac-WVTHRLAGLLS[dR]SGGVVRCNFVPTDVGPFAF-NH2; not fully specified (residue 19); printed as Ac-WVTHRLAGLLSrSGGVVRCNFVPTDVGPFAF-NH2)

Compound: SEQ ID NO: 15: 20 kDa PEG conjugate of SEQ ID NO:7 (reductive alkylation) (Ac-WVTHRLAGLLSRSGGVVRK(20 kDa PEG)NFVPTDVGPFAF-NH2)
AUC0-inf ([2]; IV): 12959 ng·h/mL | AUC0-t ([2]; IV): 12940 ng·h/mL | CL ([2]; IV): 2.57 mL/min/kg | MRT ([2]; IV): 1.10 h | Vss ([2]; IV): 0.174 L/kg | t1/2 ([2]; IV): 10.60 h | AUC0-inf ([2]; SC): 1542 ng·h/mL | AUC0-t ([2]; SC): 1264 ng·h/mL | CL/F ([2]; SC): 20.95 mL/min/kg | Cmax ([2]; SC): 137 ng/mL | Tmax ([2]; SC): 2.00 h | t1/2 ([2]; SC): 22.37 h

Compound: SEQ ID NO: 26: PEGylated double homoarginine analog (WVTHXLAGLLSXSGGVVRKNFVPTDVGPFAF; PEGylated; homoarginine residues; CGRP peptide; MOD_RES (1)..(1): …ON; MISC_FEATURE (5)..(5): xaa=homoarginine; MISC_FEATURE (12)..(12): xaa=homoarginine; MISC_FEATURE (19)..(19): PEGylated; MOD_RES (31)..(31): AMIDATION)
AUC0-inf ([2]; IV): 24555 ng·h/mL | AUC0-t ([2]; IV): 24546 ng·h/mL | CL ([2]; IV): 1.35 mL/min/kg | MRT ([2]; IV): 1.01 h | Vss ([2]; IV): 0.083 L/kg | t1/2 ([2]; IV): 7.39 h | AUC0-inf ([2]; SC): 1204 ng·h/mL | AUC0-t ([2]; SC): 1188 ng·h/mL | CL/F ([2]; SC): 27.67 mL/min/kg | Cmax ([2]; SC): 143 ng/mL | Tmax ([2]; SC): 2.00 h | t1/2 ([2]; SC): 26.17 h

Compound: SEQ ID NO: 32: PEGylated R11Cit, R18Cit analog (product of SEQ ID NO:31) (WVTHXLAGLLSXSGGVVRKNFVPTDVGPFAF; PEGylated; citrulline at 11 and 18; CGRP peptide; MOD_RES (1)..(1): …ON; MISC_FEATURE (5)..(5): xaa=citrulline; MISC_FEATURE (12)..(12): xaa=citrulline; MISC_FEATURE (19)..(19): PEGylated; MOD_RES (31)..(31): AMIDATION)
AUC0-inf ([2]; IV): 40431 ng·h/mL | AUC0-t ([2]; IV): 40250 ng·h/mL | CL ([2]; IV): 0.817 mL/min/kg | MRT ([2]; IV): 4.12 h | Vss ([2]; IV): 0.204 L/kg | t1/2 ([2]; IV): 42.78 h | AUC0-inf ([2]; SC): 19046 ng·h/mL | AUC0-t ([2]; SC): 18933 ng·h/mL | CL/F ([2]; SC): 1.75 mL/min/kg | Cmax ([2]; SC): 1879 ng/mL | F % ([2]; SC): 47% | Tmax ([2]; SC): 4.00 h | t1/2 ([2]; SC): 29.98 h

Compound: SEQ ID NO: 40: double glutamine analog PEGylated through amine linkage (Ac-WVTHQLAGLLSQSGGVVRK(PEG)NFVPTDVGPFAF-NH2; reading uncertain)
AUC0-inf ([2]; IV): 10666 ng·h/mL | AUC0-t ([2]; IV): 10651 ng·h/mL | CL ([2]; IV): 3.12 mL/min/kg | MRT ([2]; IV): 2.63 h | Vss ([2]; IV): 0.496 L/kg | t1/2 ([2]; IV): 32.57 h | AUC0-inf ([2]; SC): 1223 ng·h/mL | AUC0-t ([2]; SC): 1212 ng·h/mL | CL/F ([2]; SC): 27.23 mL/min/kg | Cmax ([2]; SC): 121 ng/mL | F % ([2]; SC): 11% | Tmax ([2]; SC): 4.00 h | t1/2 ([2]; SC): 27.15 h
